Reference: US10751422B2, “Antibody drug conjugates (ADC) that bind to FLT3 proteins” (AGENSYS, INC., priority 2015, dated 2020)

Key:
Raji = assay: ADCC activity in vitro (CytoTox 96 LDH assay), positive control cell line Raji; type: cell-based; settings: effector normal human PBMC, E:T=100:1, 2.5 ug/mL, 4 hours
Flt3 protein = Flt3 protein (Homo sapiens, UniProt P36888); assay: Binding of hybridoma MAb to Flt3 protein and Flt3 expressing cells; settings: recombinant and endogenous cells
Text: MAbs to FLT3 were generated using VelocImmune® technology (Regeneron, Tarrytown, N.Y.) wherein genetically engineered mice make antibodies that have fully human variable regions and mouse constant regions. The MAb designated v62-1b21 (also known as AGS62.21) was generated after immunizing VelocImmune® mice with recombinant human FLT3 protein.

RS-4-11 = type: cell-based, human
Description: Briefly, The RS-4-11 cells were seeded in 50 μl of complete media at a density of 3000 cells per well onto 96 well plates and placed in a tissue culture incubator at 37° C.; 5% CO2. The next day, the ADCs were prepared in complete media at 10 μg/mL and serially diluted 1:5 for a total of 9 points. […] At the end of the incubation period, 20 μl of Presto Blue was added to each well and incubated for 2 hours. The plates were read using a BioTek Synergy H4 plate reader using 540 Excitation and 590 Emission wavelengths and graphed using Graphpad Prism software.

EOL-1 = EOL-1 cell growth with human FLT3 ligand and antibody (Cell Titer Glo, 5 days); type: cell-based; settings: 50, 10 or 5 ng/mL, no antibody
Description: The ability of FLT3 antibodies (CHv62.21 and v62-1b37.1) to mediate the effect of human FLT3 ligand was evaluated using the human leukemia EOL-1 cell line, which endogenously expresses FLT3. Isotype control antibody (mLys-1c3.1) was also used. […] The next day, cells were treated with 50, 10 or 5 ng/mL of human FLT3 ligand (in 25 μl of complete media) and 10, 1, 0.1 and 0 μg/mL of test antibody (in 25 μl of complete media). Media alone was used as the untreated control. […] At the end of the incubation period, 100 μl of Cell Titer Glo was added to each well and incubated for 30 minutes, shaking, at room temperature.

Rituximab
ADCC activity (Raji): confirms ADCC activity

B1: v62-1b21: hybridoma FLT3 MAb from VelocImmune mice, fully human variable regions and mouse constant regions (antibody, V domains shown)
VH: EVQLVESGGGLVRPGGSLRLSCAASGFTFSGYSINWVRQAPGKGLEWVSSISSSSNYIYYADSVKGRFTISRDNAKNSLYLQMNSLRAEDTAVYYCAREGFIAGTTFDAFDIWGQGTMVTVSS
VL: DIQMTQSPSSLSASVGDRVTITCRASQGIRNDLGWYQQKPGKAPKRLIYAASSLQSGVPSRFSGSGSGTEFTLTISSLQPEDFATYYCLQHNGFPYTFGQGTKLEIKR
binding to Flt3 protein and Flt3 expressing cells (Flt3 protein): specifically binds to Flt3 protein and Flt3 expressing cells

B2: v62-1b21.1-AGL-0129-08 (conjugate)
VH: EVQLVESGGGLVRPGGSLRLSCAASGFTFSGYSINWVRQAPGKGLEWVSSISSSSNYIYYADSVKGRFTISRDNAKNSLYLQMNSLRAEDTAVYYCAREGFIAGTTFDAFDIWGQGTMVTVSS
VL: DIQMTQSPSSLSASVGDRVTITCRASQGIRNDLGWYQQKPGKAPKRLIYAASSLQSGVPSRFSGSGSGTEFTLTISSLQPEDFATYYCLQHNGFPYTFGQGTKLEIKR
cytotoxicity (RS-4-11): can induce cytotoxicity

B3: Human FLT3 ligand: human FLT3 ligand, purchased from R and D Systems (protein)
chain: TQDCSFQHSPISSDFAVKIRELSDYLLQDYPVTVASNLQDEELCGGLWRLVLAQRWMERLKTVAGSKMQGLLERVNTEIHFVTKCAFQPPPSCLRFVQTNISRLLQETSEQLVALKPWITRQNFSRCLELQCQPDSSTLPPPWSPRPLEATAPTAPQPP
effect of human FLT3 ligand alone on growth of EOL-1 cells (EOL-1): has no effect on growth
